Assay: yeast display, Sf9 membrane polyspecificity reagent, FACS + sequencing; frameworks hold sequencing errors
Method in brief: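 Nanobodies came from a synthetic yeast display library in Saccharomyces cerevisiae BJ5465, induced with galactose for 36–48 hours and stained for 1 hour at 4 °C with 10% biotinylated, detergent-solubilized Sf9 membrane reagent. Cells were enriched on streptavidin microbeads and then FACS-sorted, with low and high (top ~1%) gates set on anti-HA fluorescence for expression and streptavidin fluorescence for reagent binding. Each polyreactivity label reflects the gate a clone came from. Genes were amplified by colony PCR, sequenced by MiSeq 2 × 250 and filtered by CDR length.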
With “QVQLVESGGGLVQAGSSLRLSCAASGGTFYINTKGWYRKAPGKERELVATITIVVSTKYADSVKGRFTISRDNAKNTVYLQMNSLKPEDTAVYYCAKDDVYRDSYLVFDGEMDYWGQGTQVTVSS” the “polyreactivity (PSR sort gate)” value was “low polyreactivity”.
With “QVQLVESGGGLVQAGSSLRLSCAASGSIFPVYAMGWYRQSPGKERELVAAISCIGGGTYYADSVKGRFTISRDNAKNTVYLQMNSLKPEDTAVYYCAAVPYTSEYDYWGQGTQVTVSS” the “polyreactivity (PSR sort gate)” value was “high polyreactivity”.
In the case of “QVQLVESGGGLVQAGSSLRLSCAASGSTYAFYALGWYRQAPGKAMELVDAITSGGTTNYADSVKGRFTISRDNAKNTVYFQMISLKPEDTAVYYCNAYYLGWYRVRAVTGYDYWGQGTQVTLSS”, the “polyreactivity (PSR sort gate)” value is reported as “low polyreactivity”.
In the case of “QVQLVESGGGLVQAGVSLPLICAASGFTIAYYTMGWYRQAPGKERELVAAISRRGSSTYYADSVMGRFTISRDNAKNTVDLQMNSLKPEDTAVYYCNKYSVLTPGYYYWGQGTQVTVSS”, the “polyreactivity (PSR sort gate)” value is reported as “high polyreactivity”.
With “QVQLVESGGGLVQAGVSLRLRCASSGFTFRPYAIGWYRQAPGKERELVAAITSGDSTNYADSVKGRFTISRDNEKNTVYLQMNSLKREDTAVYYCAADSTGRPSVSYDYWGQGTQVTVSS” the “polyreactivity (PSR sort gate)” value was “low polyreactivity”.
In the case of “QVQLVESGGGLVQAGVSLRLSCAASARSFAWKAMVWYRQAPGKERELVAAITWSGGSTYYADSVKGRFTISRDNGKNTVYFQLNSLKQEDTAVYYCNKLYPYYATHTTRGLDYWGQGTQVTVSS”, the “polyreactivity (PSR sort gate)” value is reported as “high polyreactivity”.
With “QVQLVESGGGLVQAGVSLRLSCAASGFIFNIYAMGWYRQAPGKERELVAAISWRGGSTYYADSVKGRFTISRDNAKNTVYLQMNSLKPEYTAVYYCDVEDVWVGVFGDYDYWGEGTQVTVSS” the “polyreactivity (PSR sort gate)” value was “low polyreactivity”.
In the case of “QVQLVESGGGLVQAGVSLRLSCAASGFIFVSYAMGWYRQAPGIERELVAAIDRIGGITYYADSVKGRFTISRDNAKNTVYLQMNSLKPVDTAVYYCAAAARYATVRVGREYYWGQGTQVTVSS”, the “polyreactivity (PSR sort gate)” value is reported as “low polyreactivity”.
With “QVQLVESGGGLVQAGVSLRLSCAASGFIFYWYVMGWYRHAPGKERELVAGISKNGTNTYYADSVKGRFTISRDNAKNTVYLQMNSLKPEDTAVYYCAAAKCRTKYDYWGQGTQVTVSS” the “polyreactivity (PSR sort gate)” value was “high polyreactivity”.
In the case of “QVQLVESGGGLVQAGVSLRLSCAASGFTFAYYAMGWYRQAPGKERELVAAITSGGRTNYADSVKGRFTISRDNAKNTGYLQMISLKAEDTAVSYCAKYRRGGSRHYSVFNHDYWGLGTQVTVSS”, the “polyreactivity (PSR sort gate)” value is reported as “high polyreactivity”.
With “QVQLVESGGGLVQAGVSLRLSCAASGFTIKLYAMGWYRQAPGKERELVAAISSSGGSTYYADSVKGRFTISRDNAKNTVYLQMISLKPEDTAVYYCAARTRHVHYGYWGQGTQVTVSS” the “polyreactivity (PSR sort gate)” value was “high polyreactivity”.
In the case of “QVQLVESGGGLVQAGVSLRLSCAASGGIFGNYAMGGYRQAPAKERELVAAINGGTSTYYADSVKGRFTISRDNAKNTVYLQMNCLKPEDTAGYYCAADWRYLYYALDYWGQGTQVTVSS”, the “polyreactivity (PSR sort gate)” value is reported as “low polyreactivity”.
With “QVQLVESGGGLVQAGVSLRLSCAASGGTFRPYAMGWYRQERGKERELVAAISYTGSTYYADSVKWRFTISRDNAKNTVYLQMNSLKPEDTGVYYCAKDFWYPPRFDYWGQGTQVTVSS” the “polyreactivity (PSR sort gate)” value was “low polyreactivity”.
With “QVQLVESGGGLVQAGVSLRLSCAASGLTFGAYAMGWYRQAPGKERELVAAINVSGGSTYYADSVKGRFTISRDNAKNTVYLQMNSLKPEDTAVYYCNAGLVLGGIFIPLYDYWGQGTQVTVSS” the “polyreactivity (PSR sort gate)” value was “high polyreactivity”.
With “QVQLVESGGGLVQAGVSLRLSCAASGLTFNYYDMGWYRQAPGKERELVAAISRSGTNTSYADSEKGRFTISRDNAKNTVYLQMNSLKPEDTAVYYCNADYYSRIVGVRIYDYWGQGTQVTVSS” the “polyreactivity (PSR sort gate)” value was “low polyreactivity”.
For “QVQLVESGGGLVQAGVSLRLSCAASGLTFPGYAMGWYRQATGKQRELVAAISRRGGSTYYADSVKGRFTISRDNEKNTVYLKMNSLKTEDTAVYYCNAVIRRYFVPSSYDYWGQGTQVTVSS”, the “polyreactivity (PSR sort gate)” value was “high polyreactivity”.
In the case of “QVQLVESGGGLVQAGVSLRLSCAASGNTFWVYAKGSYRQAPGKARELVAAMTRGGSTNYEDSVKGRFTISRDNAKNTVYFQMNSLKPEDTAGYYCAAESFIYFPYKMDYWGQGTQVTVSS”, the “polyreactivity (PSR sort gate)” value is reported as “low polyreactivity”.
In the case of “QVQLVESGGGLVQAGVSLRLSCAASGRIFFPNGMGCYRQAPGKESELVATISRIGGSTYYADSVKGRFTISRDNAKNTVYLQMNSLKPEDTAVYYFAAQYSYGVYWTLPYGYNYWGQGTQVTVSS”, the “polyreactivity (PSR sort gate)” value is reported as “low polyreactivity”.
With “QVQLVESGGGLVQAGVSLRLSCAASGRIFHFYAMGCYRQAPGKERELVASITWRGGRTYYADSVKARFTISRDNAKNTVFLQMNSLKPEDTAVYYCAADFRSGFSSSTTPVQSDWGQGTQVTVSS” the “polyreactivity (PSR sort gate)” value was “low polyreactivity”.
For “QVQLVESGGGLVQAGVSLRLSCAASGRIFPTNAMGWYRQAPGKERELVAAIPVSGGSTYYADSVKGRFTISRDNAKNTVYLQMNSLKPEDTAVYYCAVDDRASVGSRLDHWGQGTQVTVSS”, the “polyreactivity (PSR sort gate)” value was “low polyreactivity”.
In the case of “QVQLVESGGGLVQAGVSLRLSCAASGRIFSPYAMGWYRQAPGKERELVAAIDWDGGGTYYADSVKGRFTISRDNAKNTVYLQMNSLKPEDTAVYYCAAETDLANGTSPSDYCGQGTQVTVSS”, the “polyreactivity (PSR sort gate)” value is reported as “low polyreactivity”.
For “QVQLVESGGGLVQAGVSLRLSCAASGRILHGYAMGWYRQAPGKEREFVAAITSSGGRTYYADSVKGRFTISRDNAKNTVYLQMNSLKPDDTAVYYCAADRPAYRTGDSKYDYWGLGTQVTVSS”, the “polyreactivity (PSR sort gate)” value was “low polyreactivity”.
For “QVQLVESGGGLVQAGVSLRLSCAASGRISVFYTMGWYRQAPGKERELVAVNRTSGGRTNYADSVKGRFTISRDNAKNTVDLQMNSLKPEDTAVYYCAARVVRYGYKYYYWGQGTQVTVSS”, the “polyreactivity (PSR sort gate)” value was “low polyreactivity”.
With “QVQLVESGGGLVQAGVSLRLSCAASGRTLPRYAMGWYRQAPGKEREFVAAITFGGDSTYYADSVKGRFTISRDNAKNTVYLQMNSLKPEDTAVYSCAAKSFRGQRFGYWGQGTQVTVSS” the “polyreactivity (PSR sort gate)” value was “high polyreactivity”.
In the case of “QVQLVESGGGLVQAGVSLRLSCAASGSIFDFYAMGWYRQAPGKERELVATITASGGSTYYADSVKGRFTISRDNAKNTVYLQMNSLKPEDTAVYYCNADSVYWGQGTQVTVSS”, the “polyreactivity (PSR sort gate)” value is reported as “low polyreactivity”.
In the case of “QVQLVESGGGLVQAGVSLRLSCAASGSIFDSNAMGWYRQAPGKERELVATISSVGSTNYADSVKGRFTISRDNAKNTVYLQMNSLKPEDTAVYYCARVVDAQGYYSAASGGYYWGQGTQVSVSS”, the “polyreactivity (PSR sort gate)” value is reported as “low polyreactivity”.
In the case of “QVQLVESGGGLVQAGVSLRLSCAASGSIFGWYAMGWYRQAPGKERELVAGITRSGGSTYYADSVKGRFTISRDNAKNNVYLQMDSLNPEDTAVYYCNADLYRKRAWGSRDGSWGQGTQVTVSS”, the “polyreactivity (PSR sort gate)” value is reported as “low polyreactivity”.
In the case of “QVQLVESGGGLVQAGVSLRLSCAASGSTFIRNAMGWYRKAPGKERELVAAISSGGASTHYADSVKGRFTISRDNAKNTVYLQMKSLKPEDTAVYYCSATHRWYYWPGIPAYDYWGQGTQVTVSS”, the “polyreactivity (PSR sort gate)” value is reported as “low polyreactivity”.
For “QVQLVESGGGLVQAGVSLRLSCAASGSTFKQYAMGWYRQAPGKERELVAAIDRGGSTYYADSVKGRFTISRDNANNTVYLQMNSLKPEYTAVYYCAARFVQYRYAFDYWGQGTQVTVSS”, the “polyreactivity (PSR sort gate)” value was “low polyreactivity”.
For “QVQLVESGGGLVQAGVSLRLSCDASGSTFHYYVMGSSRQAPGKEREFVAAISRSGGNPYYADSVKGRFTISRDNAKNTVYLQMNSLKPDDTAVYYCAAALSAYVKWDYYYCGQGTQVTVSS”, the “polyreactivity (PSR sort gate)” value was “low polyreactivity”.
For “QVQLVESGGGLVQAGVSLRLSYADSGPIFYKYVMGWYRQAPGKEREMDAAINRSGGTTYYADSVKGRFTISRDKAMNTVYLQMNRLKREDTAVYYCNATLPDYWRYYYYQCGDDYWGQGTQVTVSS”, the “polyreactivity (PSR sort gate)” value was “low polyreactivity”.
In the case of “QVQLVESGGGLVQALGSLRLSCVASGSTYDAYDMGWYREAPGKERELVAAITSGGSTYYADSVKGRFTISRDNAKNTVYLQMNSLKPEDTAVYYCAASNQWSSTYLTYGFYYWGQGTQVTVSS”, the “polyreactivity (PSR sort gate)” value is reported as “low polyreactivity”.
With “QVQLVESGGGLVQARGSLRLSCAASGFIFLYNAMGWYRQAPGKERELLAAITSSGGTTYYADSVKGRFTISRDNAKNTVYLQMNSLKPEDTAVYYCAARYTGRNGGSNTPEYDYWVQGTQVTVSS” the “polyreactivity (PSR sort gate)” value was “low polyreactivity”.
With “QVQLVESGGGLVQARGSLRLSCAASGFIFRDNAMGWYRQAPGKERELVAAISKSGGRTYYADSVKGRFTISRDNAKNTVYLQMNSLKPEDTAVYYCAKASRYWSLYYWGQGTQVTVSS” the “polyreactivity (PSR sort gate)” value was “high polyreactivity”.
In the case of “QVQLVESGGGLVQARGSLRLSCAASGFNFRSYAMASYRQAPGKERELVAAINSRAGNTYYADSVKGRFTISRDNSKNTVYLQMNSLKPEDTAVYYCNAVRHTYGYYSCGQGTQVTVSS”, the “polyreactivity (PSR sort gate)” value is reported as “high polyreactivity”.
For “QVQLVESGGGLVQARGSLRLSCAASGFTFPQYAMAWYRQAPGKERELVAVISWSGSSTYYADSVKGRFTISRDNAKNTVYLQMNSLKPEDTAVDYCNTRKLYQVDYDYWGQGTQVTVSS”, the “polyreactivity (PSR sort gate)” value was “high polyreactivity”.
With “QVQLVESGGGLVQARGSLRLSCAASGITFYFNAMGWYRQAPGKERELVAVITSGGSTNYADSVKGRFTISRDNAKNTVYLQMISLKPEDTAVYYCATDKSYSSWSAQYDYWRQGTQVTVSS” the “polyreactivity (PSR sort gate)” value was “low polyreactivity”.
In the case of “QVQLVESGGGLVQARGSLRLSCAASGLTFTVDAMGWYRQAPGKEREFVAAISYSAGRTYYADSVKGRFTISRDNAKNTVYLQMNSLKPADTAVYYCAAATYYSIYDYWGQGTQVTVSS”, the “polyreactivity (PSR sort gate)” value is reported as “high polyreactivity”.
In the case of “QVQLVESGGGLVQARGSLRLSCAASGNTFVRNVMGWYRKAPGKERELFAAITWRSVRTDYADSVKGRFTISLDNAKNTVNLQMNSLKPEDTAVYNCAAPSASRHGEYDYWGQGTQVTVSS”, the “polyreactivity (PSR sort gate)” value is reported as “low polyreactivity”.
In the case of “QVQLVESGGGLVQARGSLRLSCAASGRIFKRYTMGWYTQAPGKKRELVATISSGDSTTYADSVKGRFTISRDNAKNTVYLQMNSLKQEDTAVYYCAAVWPGGSRRGDVVALNYWGQGTQVTVSS”, the “polyreactivity (PSR sort gate)” value is reported as “high polyreactivity”.
For “QVQLVESGGGLVQARGSLRLSCAASGRILYSYAMGWYRQAPGKERELVASISLSGGRTYADSVKGRFTISRDNAKNTVYLQMNSLKPEDTAVYYCNDRIRTSRYLWPFDYWGQGTQVTVSS”, the “polyreactivity (PSR sort gate)” value was “high polyreactivity”.
For “QVQLVESGGGLVQARGSLRLSCAASGRNFPSNAMGWYRQAPGKERELVPVITRGSRTKYADCVKGRFTISRDKAMNTVYLQMNSLKPEDSAVYYCAALGGLLYTQGHSEAYWGQGTQGTVSS”, the “polyreactivity (PSR sort gate)” value was “low polyreactivity”.
With “QVQLVESGGGLVQARGSLRLSCAASGRTFKRYAMGWYRQAPGKERELVAAIAWSGTSTYYADSVKGRLTISRDNAKNTVYLQMNSLIPEDTAVYYCNTPHRSSSVRSYGYWGQGTQVSVSS” the “polyreactivity (PSR sort gate)” value was “high polyreactivity”.

Reference: the nanobody polyreactivity screen of Harvey et al. (2022)
